Target: SARS-CoV-2 D614G stabilized spike ectodomain (SARS-CoV-2, D614G, UniProt A0A6H1PJZ3, D614G)
Assay: ELISA

Binder	binding result
DH1047, cross-neutralizing RBD antibody (antibody, V domains shown) VH: QVQLVQSGAEVKKPGASVQVSCQASANTFTNHYIHWVRQAPGQGLEWMGIIYPTGGNTIYAQGFQGRVTMTRDTSLNTIYLELSSLRSEDTAVYYCARDVRVDDSWSGYDLLSGGTYFDYWGQGTLVTVSS VL: not shown	binds
DH1041, SARS-CoV-2-specific ACE2-binding site-focused RBD neutralizing antibody (antibody, V domains shown) VH: EVQLVESGGGLVQPGGSLRLSCAASGVTFSSYWMSWVRQAPGKGLEWVANIRQDGSEKYSVDSVKGRFTISRDNAKNSLYLQMNSLRAEDTAVYYCARARRADNSGYYGFHFDCWGQGTLVTVSS VL: QSVLTQPPSVSGAPGQRVTISCTGSSSNIGAGYDVHWYQQLPGTAPKLLIYGNNNRPSGVPDRFSDSKSGTSASLAITRLQAEDEADYYCQSYDSSLSGWVFGGGTKLTVL	binds

From PMC8528238 (Nature, 2021)
